Reference: US20250186562A1 (University of California, published 2025)
No end group written: not given here. fluorescein = fluorescein attached to the C-terminus

Columns and labels:
[1] = target: T1, GST-Ubr-box of Ubr4 (UniProt Q5T4S7 1656-1729); assay: fluorescence polarization, GST-Ubr-box titrated into 9 nM tracer
T1 construct: domain: Ubr-box; not shown: glutathione S-transferase (GST) tag

[2] = target: T2, GST-Ubr-box of Ubr5 (UniProt O95071 1177-1245); assay: as above
T2 construct: domain: Ubr-box; not shown: glutathione S-transferase (GST) tag
T2 sequence (looked up): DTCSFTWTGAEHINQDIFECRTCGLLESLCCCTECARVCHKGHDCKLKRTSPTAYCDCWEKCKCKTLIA

[3] = target: T3, GST-UBR2 fusion protein (GST-Ubr-box of Ubr2) (human); assay: as above
T3 construct: GST fusion used as such in the FP assay

[4] = target: T4, GST-UBR1 fusion protein (GST-Ubr-box of Ubr1) (human); assay: as above
T4 construct: GST fusion used as such in the FP assay

[5] = target: T5, Purified GST (glutathione S-transferase) (UniProt P08515 1-218 = GST); assay: fluorescence polarization, GST titrated into 9 nM tracer
T5 construct: Control protein in the FP assay; also called GST alone
Text: The FP assay uses a tetrapeptide with a sequence arginine-isoleucine-phenylalanine-serine (RIFS) with fluorescein attached to the C-terminus as tracer that was previously shown to bind to the Ubr-boxes of Ubr1 and Ubr2 with similar binding affinity. Assays were developed in 384-well plates, which were read on a Clariostar Reader. Signal-to-background ratio (S/B) was optimized by varying concentrations of GST-Ubr-box and tracer concentrations. GST-fusion proteins were used due to its larger size than Ubr-box alone to increase the FP effect. […] The optimized condition includes receptor concentration [GST-UBR1]=2 μM, tracer concentration [tracer]=9 nM, and the highest concentration of unlabeled peptidomimetic compound competitors at 200 μM with 3× serial dilutions.

T3 sequence (chain, as listed by the source limits assumed): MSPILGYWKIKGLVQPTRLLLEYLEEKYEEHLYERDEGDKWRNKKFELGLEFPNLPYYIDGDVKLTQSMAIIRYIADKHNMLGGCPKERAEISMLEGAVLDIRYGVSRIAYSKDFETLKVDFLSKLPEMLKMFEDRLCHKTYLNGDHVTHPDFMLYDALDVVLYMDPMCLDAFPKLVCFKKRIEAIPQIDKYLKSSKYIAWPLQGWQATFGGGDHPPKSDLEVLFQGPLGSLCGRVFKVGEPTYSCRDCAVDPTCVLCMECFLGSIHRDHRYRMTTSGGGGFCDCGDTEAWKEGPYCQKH
T1 sequence (Q5T4S7 1656-1729): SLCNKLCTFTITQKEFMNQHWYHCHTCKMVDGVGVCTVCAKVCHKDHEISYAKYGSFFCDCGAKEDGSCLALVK
T4 sequence (chain, as listed by the source limits assumed): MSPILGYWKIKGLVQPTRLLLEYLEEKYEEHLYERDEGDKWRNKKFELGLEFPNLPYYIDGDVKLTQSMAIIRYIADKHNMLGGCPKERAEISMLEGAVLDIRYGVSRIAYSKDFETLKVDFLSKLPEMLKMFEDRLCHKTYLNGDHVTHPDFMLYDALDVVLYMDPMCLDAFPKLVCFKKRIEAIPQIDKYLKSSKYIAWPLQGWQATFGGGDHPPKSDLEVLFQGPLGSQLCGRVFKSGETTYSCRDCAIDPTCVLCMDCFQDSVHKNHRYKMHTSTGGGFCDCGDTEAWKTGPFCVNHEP
T5 sequence (P08515 whole entry): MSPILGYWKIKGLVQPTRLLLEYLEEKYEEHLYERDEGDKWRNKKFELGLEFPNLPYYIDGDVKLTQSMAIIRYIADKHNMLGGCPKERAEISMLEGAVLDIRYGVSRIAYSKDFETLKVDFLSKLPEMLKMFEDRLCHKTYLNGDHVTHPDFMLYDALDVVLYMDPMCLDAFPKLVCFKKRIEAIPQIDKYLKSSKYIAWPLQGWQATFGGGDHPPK

B1: tetrapeptide arginine-isoleucine-phenylalanine-serine (RIFS) with fluorescein attached to the C-terminus (peptide)
peptide: RIFS-fluorescein
notes: FP tracer, used at 9 nM; also called tracer
Q: What does the source list for B1?
A: binding result [1]: no binding; binding result [2]: no binding; binding result [3]: binds; binding result [4]: binds; binding result [5]: no binding
